Data set [1] deals with T1, RpoN (sigma54) (Leptospira biflexa strain Patoc 1 …, UniProt B0SR56 1-473).
T1 sequence: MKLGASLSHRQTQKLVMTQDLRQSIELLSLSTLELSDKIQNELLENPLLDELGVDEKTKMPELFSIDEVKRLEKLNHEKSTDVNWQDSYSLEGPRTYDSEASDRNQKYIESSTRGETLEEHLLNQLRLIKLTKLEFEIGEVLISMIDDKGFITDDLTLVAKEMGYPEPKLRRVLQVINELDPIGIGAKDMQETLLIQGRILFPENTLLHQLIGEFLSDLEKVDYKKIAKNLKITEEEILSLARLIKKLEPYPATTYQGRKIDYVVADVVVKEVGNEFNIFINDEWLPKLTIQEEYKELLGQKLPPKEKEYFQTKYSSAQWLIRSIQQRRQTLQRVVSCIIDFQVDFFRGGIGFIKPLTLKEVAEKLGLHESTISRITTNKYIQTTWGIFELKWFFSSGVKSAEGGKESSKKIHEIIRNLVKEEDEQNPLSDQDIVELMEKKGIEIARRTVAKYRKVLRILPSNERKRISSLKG
Nature of the data set: EMSA. Background: A gel shift assay detects complexes by their altered migration in electrophoresis.

The target in data set [2] is T1, RpoN (sigma54). Nature of the data set: competition.

B1: rcfA promoter -24/-12 probe (dsDNA)
DNA 1: TAAGCCCAATATGCTTTTGGCACGATAGTTGCATCTATTCTACTG
DNA 2: TTCAGTAGAATAGATGCAACTATCGTGCCAAAAGCATATTGGGCTT
On to B1, for which the binding result with RpoN (sigma54) [1] was “binds”.

B2: rcfA promoter cold competitor (dsDNA)
DNA 1: B1 DNA 1
DNA 2: B1 DNA 2
Turning to B2, the binding result with RpoN (sigma54) [2] is “binds”.

Source of the values: publication PMC6174002.
